What was measured:
[1] = molecular target: GST-KRIT1 FERM (human, UniProt O00522 420-734); experiment: pull-down
[2] = molecular target: KRIT1(L717,721A) FERM protein (human, UniProt O00522 420-734, L717A | L721A); experiment: ITC
[3] = molecular target: KRIT1 FERM domain, KRIT1(417-736) (human, UniProt O00522 417-736); experiment: ITC
KRIT1 FERM domain, KRIT1(417-736), sequence (O00522 417-736): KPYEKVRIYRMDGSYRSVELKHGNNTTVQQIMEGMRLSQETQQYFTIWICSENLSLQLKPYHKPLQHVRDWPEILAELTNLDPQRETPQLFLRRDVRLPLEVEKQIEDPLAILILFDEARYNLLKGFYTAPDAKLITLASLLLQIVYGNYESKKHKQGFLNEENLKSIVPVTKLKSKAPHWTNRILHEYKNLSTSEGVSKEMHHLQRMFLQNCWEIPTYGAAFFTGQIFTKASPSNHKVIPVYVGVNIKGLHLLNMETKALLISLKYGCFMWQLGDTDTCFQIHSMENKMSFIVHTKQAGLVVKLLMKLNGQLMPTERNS

GST-KRIT1 FERM, sequence (O00522 420-734): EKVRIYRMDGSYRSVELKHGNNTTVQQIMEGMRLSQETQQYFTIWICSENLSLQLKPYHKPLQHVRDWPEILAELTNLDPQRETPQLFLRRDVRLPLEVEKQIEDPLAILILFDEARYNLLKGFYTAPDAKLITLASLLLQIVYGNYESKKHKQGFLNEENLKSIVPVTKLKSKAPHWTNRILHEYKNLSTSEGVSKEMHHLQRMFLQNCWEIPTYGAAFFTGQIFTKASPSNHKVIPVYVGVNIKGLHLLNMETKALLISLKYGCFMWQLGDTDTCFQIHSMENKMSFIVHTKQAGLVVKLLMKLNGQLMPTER
KRIT1(L717,721A) FERM protein, sequence (O00522 420-734 L717A/L721A): as the sequence (O00522 420-734) above, with L298A, L302A counted along it

| binding result [1] | fold reduction in affinity against wild type [2] [fold] | stoichiometry N [3] | Binder |
| --- | --- | --- | --- |
| binds |  |  | HEG1 cytoplasmic tail model protein (residues 1,274-1,381) (domain or fragment, human, UniProt Q9ULI3 1274-1381, looked up) RKNKNDISKLIFKSGDFQMSPYAEYPKNPRSQEWGREAIEMHENGSTKNLLQMTDVYYSPTSVRNPELERNGLYPAYTGLPGSRHSCIFPGQYNPSFISDESRRRDYF |
|  | > 100 | 1.01 | SRHSCIFPGQYNPSFISDESRRRDYF (peptide, UniProt Q9ULI3 1356-1381, looked up) [recombinant human HEG1 C26 peptide (residues 1,356-1,381)] |

Reference: article PMC3461514 (The Journal of Cell Biology, 2012)
